Measured values taken from publication PMC6834915.

Molecular target: CdiI^Kp342 immunity protein (untagged) (Klebsiella pneumoniae 342)
Assay: crystal structure

## CdiI^Kp342 immunity protein (untagged) (natural protein)
  stoichiometry N: 2
